Assay: label from the status in PepcDB records
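Also: failed if final PepcDB status was selected cloned or expressed and not failed if soluble or beyond.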

Sequence | protein production
MSKIGRNDPCPCGSGKKYKQCCFHRATSAAATPDAEMLWRAGNAHLAGGALDMALSCYREAVRLRPGFAQAHYNLGVVFQQKGLLDEAAASFRSAISFNRDYAKAYNNLGYILATQGRLDESADCFNRAIAIEPGFAAAYHNLGTTLRHQGRLDETLAAFRTAHAINPHDPVFHSDLLMMLHYSDMDDETLFREHVRWGEQHAPAAASVPTHQCDRDPGRKLRIGYVSGDFGKHPVGYFLLPFLENHDRSQFEICCYSERGQRQEDDVTARIKGHADLWRRTIGLGDAAVAEMIRADGIDILVDLAGHTAHNRLRVFALKPAPVQVTWLGYPNTTGLRAMDYRITDAVADPPGSADALHTEQLIRLEQGFLCYTPPAGAPPVGEAPCLAGAGVTFGSFNNLAKVSPQVIDAWSAILGRVPGSRLMLKFKGFADETCRRRVSDAFGARGVSPDRLELVSFVENFNDHLALYNRLDLALDTFPYNGTATTCDALWMGVPVLTCCGTRHVARVGASILTSLGLPELITHSPEEYISAAAALAADPARLAALRRDMRPRLAASPLCDPTGFARRMETALRDIWRRWCSA | failed
HSAIVILDSRGNIQRFNRLCEDYTGLKEHDVIGQSVFKLFMSRREAAASRRNNRVFFRSGNAYEVELWIPTRKGQRLFLFRNKFVHSGSGKNEIFLICSGTD | failed
MRLAEGIVIEKEKTFGTLKFSALRREVKIVDDEGNVTEQVKERTFDLKKEQGRMIQVSIPASAGVKNFDYNAEVEIINPIADTVATATFQGADVDWYIKAEDIVLKRPAQNQQADQKQNHDKKLEHHHHHH | failed
MSQEAFENKLYANLEAVIDPELGVDIVNLGLVYDVTADENNNAVITMTMTSIGCPMAGQIVSDVKKVLSTNVPEVNEIEVNVVWNPPWSKERMSRMAKIALGIRD | not failed
MRVTGVIIRIIRQFFRDKRSLAMMFGAPMLLLWLLSLVFTQKDYVPHIAVVDMPVQVVKVMKNQEASIYEYSKEKAMSELENQKVDAVIRLENGKMNIVLEGSDSSKNRAVLQILQKSTEKNDVSIMKPEVNYLHGSKDFTMFDGLGPVLIGFFTFFFVFILSGVSFVRERLSGTLERLLSTPIKRWEIVVGYIIGFGIFAFIQSIIIVSFSVYILDLYVAGSIWLTLLITCMLSLTALTLGTFLSAYANNEFQMIQFIPLVIVPQIFFSGLFPIESMNKWLQMLGKLFPLTYGADAMRQVMIRNQGFTEIALDLTVLLFFSVLFAVGNVFALKKHRKI | failed
MMIVDPKYCSLHPVDLAIVRKVLKITDGNFVITNAEGNLLFKVKDPFFSLHEKRILMDGFGTKVLTLKGKIMTMHDRWLVFRGGSTEEVDLLYTVKRSNMVQITTKLDVFLADNIEQKKCDYRLEGVWLETSCFVYAGDSDIILAQMREKKTMQSVLFGKDNFCLTVNPNVDYAFIASLIVILFHQKDDIYPIESLWKRDITDFIC | failed
MLIYEGHIDKLIRRGQEKGLDIFNLIRAAVINPVEHYGLNVGLLREGDPADFITVDDLKSFNVLSTFIDGECVYENGKVLFPMKLEHHHHHH | not failed
KTFAALGSGVIGSGWIARALAHGLDVVAWDPAPGAEAALRARVANAWPALRKQGLAPGAAQERLRFVASIEECVGDADFIQESAPERLDLKLDLHARISAAARPDVLIGSSTSGLLPSEFYAEASHPERCLVGHPFNPVYLLPLVEVVGGERTAAEAVRAAMRVYESLGMRPLHVRKEVPGFIADRLLEALWREALHLVNDGVATTGEIDDAIRFGAGLRWSFMGTFLTYTLAGGNAGMRHFMAQFGPALQLPWTYLPAPELTEALIDRVVEGTAEQQGARSIAELERYRDDCLLAVLGAIRETKARHGFA | failed
MSIDFYNQNASSFYASTVEVDSSSLLEQFTPYLPKGGSVLDAGCGSGRDSKRLIELGFHVDAFDASAALATLAQQLLGKPVRVATFMQFTSTLQYDGIWACASLLHVSKASLPDAFAHLASMLKSGGAFYCSFKYGQGEVERDGRSFTHCDEALLAELLTGSPLVIDKVWLTTDLRVGRENEQWLNAVLLKRLEHHHHHH | not failed
MSASAVHSLWTTAADPISKIDAPKIEYGQLSPTLIVIGAALVGVLVEAFVPRKSRYYAQVFVSVVALAAAFAAVVALAAGGYGTTKAHIAAMGAIAVDGPALFLQGTILLAGLLGVFTFAERRLDPEVHGNRVDSFAAQAASVPGSDSEKAAVKAGFTTTEVFPLLLFAVGGMLIFPSANDLLTLFVALEVFSLPLYLLCAVARRKRLMSQEAAVKYFLLGAFASAFTLFGIALLYGYAGSMSYATIAQVVDGTVQNVDPALAGTMGNDALLLVGAAMLVMGLLFKVGAVPFHMWTPDVYQGAPTPVTGFMAAATKVAAFGALLRLLYVVLPGLRWDWRPVMWAVAIVTMLGGAIVAITQTDIKRLLAYSSIAHAGFILAGVIATTPDGVSSVLFYLGAYSFVTIGAFAVVTLVRDAGGEATHLSKWAGLGRRSPLVAAVFAVFLLAFAGIPLTSGFAGKFAVFKAAAEGGAAPLVVVGVISSAIAAFFYIRVIVLMFFSEPRPEGPTVAVPSPLTTTVIGVGVVVTLVLGVAPQYFLDLAG | failed
VDMDVTTAKLVVGFRGYLTLTQHSLLTYRIALKLFLSMLIGWTSKIYHTLYEDGKIDDSFDVDVEIHHNFQFVLISLDTPEPIAMSNYIRQKLATIKISKEFTNEHLNLLKKEMYGDFIQSLDSIEHLTHQFSLYLSDSDKETYFDIPKIIERLTLKDVVTIGKAFFEKADASDFTVFPK | failed
MGDIEGINIQSMASEIKKLRHKIETLEQQNSDLEIALTTAVEHGDAIESELFSTNDRLRGEVRERVIAERRLSKVLTVVSQQKDDLEVLVQTITEHSDEIDTQWLSRYSEVEALARLDPLTSIANRRMLDSALEQEWTRSLRSGSPLSVAMCDLDLFKAYNDRYGHNRGDQVLIAFAEILRGCSRRPPDLPARVGGEEFLILFPETDLAGARQVAEAIRLALWTLAIPHADSPHGRVTVSIGLACVFPRPEGDPADLIAQADFRLYEAKAHNRNTVRA | failed
MDDGNENISMEVVEPEDAESDMSSDSGSDAEDDTAEPKAPKEVYLPGTKLADDEELVCDESAYVMLHQASTGAPCLSFDVIPDELGSGRQSFPMTAYIVAGTQASRAHVNNLIVMKMSNLHKTQDNDGDEDEELEDDQDDVTDREELKKPQMTCALVKHQGCVNRVRARRLGNSVYAASWSELGRVNIWDLTQPLQAVENAQLAKQYEQSEARPVFTFGGHQQEGFAIDWSPSADGVLATGDCRRDIHVWTPVEDGTWKVDQRPLAGHSQSVEDLQWSPNERSVLASCSVDKTIRIWDCRASPQKACMLTCEDAHQSDVNVISWNRNEPFIASGGDDGYLHIWDLRQFQSKKPIATFKHHTDHITTVEWSPAEATVLASGGDDDQIALWDLAVEKDIDQAVDPAQNEDVLNKLPPQLLFIHQGQKEIKELHWHPQLPGVLLSTAHSGFNIFRTISV | failed
ISKASATRHSQLVTHACRLIETSDPVPSLGQLSARLAVSPFHLHRLFKAETGV | failed
MGFADFFKNFKINKLRTAPSKEEQPSHWVKCPKCYALMYHKEVFSKYSVCLKCHYHFRMKAAERIEFLCDVGSFEEFDKHLRPNDPLNFVDKESYKQRIKKYEKRTNRPSSVISGEAKINRMPLQIVVFDFSFMGGSLGSVEGEKIVRAINRAVAKREALLIVSASGGARMQESTYSLMQMAKTSAALNRLSEAKLPFISLLSDPTYGGVSASFAFLGDLIIAEPGAMIGFAGPRVIKQTIGADLPEGFQTAEFLLEHGLIDMIVHRKDLKKTLSDLIAMMTHKTSKIF | failed
MNRSLWTQWSIASVIVLFCAFCLYSPAHAGVDEDLVRAVEDNKTHRVRDLLTKGASPDARDLQSETALMLAARNKNPEMGGLLLEAGANPDLRNKYGETATMLACYYGQLDLVKRLYAKGAKIDHDGWNPLIYAASKGYKEIVEFLLNYGVRIDAATDNGTTALMMAVRGNHYDTVELLLKHGANALIRNEADGTALGWARKQGHTSIVQLLTRNGTAD | failed
ATSYMTCSAYQKVQDSEISFPAGVEVQVLEKQESGWWYVRFGELEGWAPSHYLVLDENEQPDPSGKE | not failed
MADSSNKKKAASHESKKSNMEIMFSGSDSLTKRERRKKKQLIARSVGFALIGIEVIALIIFLAALFKLNMIPAKYMAMLIGILLLITVYNVLSQFTKAHWVGKVLAVLLAVVMFVGSSYIGKANSVISNIAGVTTKTDTFSLVVLATDPATGVEATKNYTFGYNKINNKDMAESLIQEVNTTLGTNVKTRTYDNWTNIINALYNNEVKVIVFNESNRAMLEEQFTDFEEKTKVIYTKTYTTQIKENVVNKNTATESFTIYVSGNDDYGAISANGRSDVNIVATFNPKTRQVLMVSTPRDYWVPVDTLSTDSNGKAVTGYEKLTHAGNYGVDSSISTLESLYGVDVDYYVKVNFTGAVGVIDALGGITINSDVKFTNGEDAAPVAYNFVVGPNECDGEKALAFCRERQAFSDGDNQRGRNQMAAIEGMIDKATSTAILTQYNKVLDAVSGLIATNMPDSAISNLVKAQINDPTGWNIMSYSVSGTGATKTGQLFGIVGMSVIEPDYSTVNTAIELMSKVRNGEVFDIDQFLEDKALESGTTQAR | failed
MAFNGAMSVGAQISDAVILAHSPKSCTHIMYQTISSAGRRTLFERGALLPVSLAPNLESTDMGEAEMIFGGMEKLEEKILELKARQPRAIVVVSACPAGIIGDDIGRTRRFSEPGLPVVTLKTDGNLAGDYLQGMLMAYTSLARQVIRLEHHHHHH | failed
MVKKLFILISYGVIAALIYLYGEWLLEWIQQGGARFIFLTVIIATLLALFPIIPYPIIGGVLGAAYGPFLGSAVTWIGSSLASIIMFMFVRYGYQDWGLSLIRRSDLVTKVTAMFEKNAFMAIFITRLIPIIPSIIVNIYSALSRVSFINYSIASSLGKVPSMILFAVVGNSIATNPSQLLWIALFYSSFLLIVWIGYRAWQRVALQKQANI | failed
MALMTNKTRALLIGGHGKVALLATPMLIDASVQVTSMYRNPDHRSEIEALGATTLERDVTTLSVEDWADLLKDFDVVVWSAGNGGKNGADATYAIDRDAAIASIDGAASLGEKAPRYIMVSYIGSSTHTIDPSASFYPYAESKKAADEHLSSTNLDYLILAPAALTLDEVNGVEVIADTNEAAAGRTTSRVLVAEVITEFVVRDFPQTRVLPFVDGESPLEHHHHHH | not failed
VEPSEENSKDCVVCQNGTVNWVLLPCRHTCLCDGCVKYFQQCPMCRQFVQESFAL | not failed
GFAAYIWGSDFSFEVSAYAVAEREVPVADWVLRRIVPYRKCYGIDPEEFSSYRNAADSEIFMAYLDDQPVGHVVVSTNWNGYAHIDELAVHAPARRHGVARALLDVAQFWSRRKKLPGMMLETQNNNLGACRLYEQCGYVVGGVDHLRYRGIDPQTAEVAIFWYRLFANELE | failed
MCRKRYKKQNLGVSKNMLEGHENKVSGVYEKNRSAGYEKEILKPKNVWEEFFADKRSGGHRSSAEEFLAMEAKEKLFHLDGGKILLDFGCGAGELLVYYAQEYEKTIGVDFSPSMLEEASKRIRERNCKNTTLILADDKIVWDKLDSSFDRITAAGVFQYLTYQKIDDFIFNASKHLNEGGKIVLFDMLDPRLYPLWKMGLFSQDKSCRKILSKAVCGVKNSISASLKRRPRDILGYSHYPNKIKKIANKNGFEMICVQSMYYEYKYHAIIFRS | failed

Reference: a protein production outcome set (Wang et al. 2014)
